# Reference: US20240240234
# Assays:
# [1] = tested on: EcoGII adenine methyltransferase; conditions: methylation efficiency by DpnII protection; SAM; 0.1% BSA improves
# [2] = tested on: Hia5 adenine methyltransferase; conditions: methylation efficiency by DpnII protection; SAM; 0.1% BSA improves
# [3] = tested on: LMNB1 (Lamin B1) (Homo sapiens); conditions: DiMeLo-seq pA-Hia5 in situ, signal:background mA ratio (IgG control 1.6)
Substance,activity [1] [%],activity [2] [%],binding signal [3]
90-bp duplex with single GATC,100,100,–
constitutive lamina-associated domains (cLADs),–,–,34.3
